Results published in the RNAGym collection of RNA variant scans (doi:10.1073/pnas.2313332121).

B1: TPR t1 (parent)
chain: GACCAAUCUGCCCUCAGAGCUCGAGAACAUCUUCGGAUGCAGAGGAGGCAGGCUUCGGUGGCGCGAUAGCGCCAACGUCCUCAACCUCCAAUGCAUCCCACCACAUGAUGAUGCCUGAAGAGCCUUGGUUUUUUG

Variants of: B1
Experiment: polymerase ribozyme fitness, log enrichment relative to wild type (log ratio); higher = more active; in vitro selection for triplet polymerase activity
Procedure, shortened: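 Genotype fitness is the logarithm of its enrichment divided by wild-type enrichment, using inverse-variance-weighted averages of replicates. That logarithm is base 2. Enrichment was measured by Illumina sequencing of input and output libraries from one triplicate in vitro selection round, with frozen incubation at −7 °C, on PCR-built, transcribed mutant libraries of each subunit of a heterodimeric triplet polymerase ribozyme, retaining genotypes with ≥10 input reads and ≥1 read per output.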

Row | Variant | polymerase ribozyme fitness (log ratio)
1 | C73A A84U C88A G110A C123A U126C | -4.76
2 | U78A C80A C94G U133A | -6.19
3 | U78A C115G | -2.13
4 | C73A C86U C124A | 1.85
5 | C73A A91U C94U | -2.58
6 | A74U G93A | -0.498
7 | G77A C89A C94U G122A | -4.01
8 | C73U C76G U112G | -1.81
9 | C79U C94A | -4.5
10 | C79U C94G | -0.831
11 | C79G C101A G135U | -4.68
12 | U78G G107U | -5.32
13 | C73G A119U U132C | -1.94
14 | C73A C104A | -1.07
15 | C72U U133G | -0.942
16 | C73G G113A | -1.29
17 | C73U A90C A95C | -1.36
18 | C73U C86G C115G U129A | -5.03
19 | C72U G110U U125A | -2.31
20 | U78C U106A | 0.00582
21 | C72U U92A A95U | -4.07
22 | C79A U106C | -0.96
23 | U78A U112C G120A | -0.475
24 | A74U A83G C99U A100U G120U | -6.6

Row | Variant | polymerase ribozyme fitness (log ratio)
25 | C79G C89U U112A | -2.07
26 | U78C A83G U106C | -1.19
27 | C73A G128C | -2.05
28 | G77A U96G | -1.12
29 | C79A G107A G117U | -6.98
30 | A75U C97A | -5.53
31 | C73U C82A | 0.468
32 | G77U A91U U133C | -1.24
33 | C72U U81G C85A | -3.96
34 | C76G A90C C101U | -1
35 | C73A C99U A119U U130A | -4.24
36 | C76A C89A U133C | -2.43
37 | G77U G113A | -1.38
38 | U78C G127U | -1.04
39 | C73A A119G | 0.838
40 | A75U C82G U96A C115G | -3.29
41 | U78G C80U | -0.927
42 | C73G C124A | 1.65
43 | U78A C94A U125G | -2.31
44 | A74C C101U U132C | -0.834
45 | C79A A95G C101U C123U | -4.17
46 | C73G G117A C124A | 0.864
47 | C79A U112C G127A | -1.43
48 | C76A A121U U125G | 0.374

Row | Variant | polymerase ribozyme fitness (log ratio)
49 | C73U C101G G120U | -0.999
50 | C73G A121C | 1.42
51 | C72U C104U | -0.541
52 | C79G U81A C98U C102G G107C | -7.84
53 | U78C U125A | -0.432
54 | U78C A121U | 1.42
55 | G77A A83U U87C C104U A105C | -5.02
56 | C79A C85U | -2.34
57 | C73U U132C | -0.238
58 | C79G U126A G128U | -4.31
59 | A74C C76A A121C | -1.23
60 | C73G G127A | -1.82
61 | C73A G113C | -2.27
62 | C79A A95U | -1.9
63 | C79G C114A | -0.594
64 | U78G U109A | -6.21
65 | U78G A84U C115U A121C | -3.92
66 | C73A U78C C94U | -0.492
67 | C72U U96G U126C | -1.75
68 | A74U U125A U131G | -0.852
69 | C76U U81A | -0.892
70 | C72U C115U U129G | -2.18
71 | C73G G110A | -1.17
72 | G77A C104A G128A | -3.06

Row | Variant | polymerase ribozyme fitness (log ratio)
73 | U78G U116C U133A | -0.304
74 | U78A C114A | -1.63
75 | C79U C82A | -1.23
76 | C72U C114U C123U U130A G135A | -2.43
77 | G77C U125C | -3.91
78 | C73G G120A | -0.212
79 | G77U C88G U92A G113C G122A C123G | -4.68
80 | U78C G117A | -1.35
81 | U78C G117C | -3.6
82 | A74C G113U C115U G117A C123A | -6.47
83 | C79U A95G A105U | -2.87
84 | C73U C115U | -0.667
85 | C73U A74G C99U | -3.36
86 | U78C U130C | 0.0983
87 | G77U C101G G127A | -2.44
88 | C79U G122U | 0.0245
89 | C73U U78C U92G | -2.25
90 | A74C C101G | -2.14
91 | C79G A83G C89G | -3.62
92 | C72U U126C | -0.816
93 | C73U C88U | -0.361
94 | U78C C88U A121C | 1.67
95 | C73A C123A G135C | 0.5
96 | C73U C79A A90C C115A | -2.96

Row | Variant | polymerase ribozyme fitness (log ratio)
97 | C73G C101U | -0.446
98 | G77U U81G | -3.24
99 | C72U U87A | -0.188
100 | C73U C98A | -4.94
101 | U78C G93U C124A | 0.632
102 | C79A C88U C101U | -0.735
103 | C73A A90U A105G G113C G122C | -3.65
104 | C79A C101U | -1.4
105 | C73A C114A | -1.84
106 | A75G C123U | 1.55
107 | C73U C80A A90U U106A | -5.89
108 | A75G G113C | -2.4
109 | U78G G93A | -0.0742
110 | U78A C123U | 1.1
111 | A75G C80A G128U U133C G135C | -4.6
112 | G77U C115G G128C | -2.98
113 | C73G U116C U131A | -1.53
114 | C73U U96A | -1.16
115 | C79G U87G U92C G120U | -4.54
116 | G77U U131A | -0.157
117 | C73A C102U G128C | -3.88
118 | C73U C86A | -0.276
119 | U78C C94U | -0.58
120 | U78G U96A C124G | 1.43

Row | Variant | polymerase ribozyme fitness (log ratio)
121 | A74U U96C | -0.884
122 | U78C U87C C115U | -0.381
123 | C73A C88G A111U U129G | -5.91
124 | C73U G110A | -0.705
125 | C79G C89A | -5.03
126 | U78G A91C U92G | -3.13
127 | A74U C104A C124G | 0.0488
128 | G77U C115G A118C | -5.42
129 | U78A G122A | -1.42
130 | U78A C104U C115U | -1.54
131 | C73U U87C C89G G120A | -1.46
132 | C72U U87G C89U C123A | 0.156
133 | C79G C123U | 0.127
134 | C79G G120A U130C | -1.26
135 | C73U C104U C115A | 0.332
136 | U78A C115G U116G | -3.11
137 | C80A A84U | -3.74
138 | G77U A100C A118U U129C | -1.45
139 | C72U G135C | -0.00236
140 | C73U A84U G110U | -1.67
141 | G77U A111U | -3.23
142 | A75G A83C G93C | -1.73
143 | C73G U109A | -5.36
144 | C73G U109G | -6.77

Row | Variant | polymerase ribozyme fitness (log ratio)
145 | C73U G113A | -0.0568
146 | C73U C124U | 1.94
147 | G77A U109A | -5.95
148 | C72U U78G U109C | -5.41
149 | C73U U96G G117A | -2.78
150 | U78G C102U | -1.93
151 | U78A C124G | 1.42
152 | U78C A118U | 0.929
153 | U78G C114U | -2.96
154 | U78C C85G | -1.82
155 | G77A C82A G110A C123A | -2.98
156 | G77U C94U | 0.0625
157 | G77C C115A | 0.325
158 | C73G A83U C88G U130A | -3.2
159 | C72U U78C C86G C115U | -1.64
160 | A75G C88G | -1.04
161 | G77A A91U | -1.6
162 | G77A | -0.264
163 | G77U | -0.194
164 | G77C | -0.424
165 | G77A C88G | -0.754
166 | C79U C124A | 1.12
167 | C79U C124G | 1.81
